We go through 3 variants from IntAct's records for PubMed 24671035.

To fix the notation:
B1: FUN14 domain-containing protein 1 (Homo sapiens), Q8IVP5 (parent)
chain: MATRNPPPQDYESDDDSYEVLDLTEYARRHQWWNRVFGHSSGPMVEKYSVATQIVMGGVTGWCAGFLFQKVGKLAATAVGGGFLLLQIASHSGYVQIDWKRVEKDVNKAKRQIKKRANKAAPEINNLIEEATEFIKQNIVISSGFVGGFLLGLAS
B2: FUN14 domain-containing protein 1 (Homo sapiens), Q8IVP5 (parent)
chain: B1 chain
partner: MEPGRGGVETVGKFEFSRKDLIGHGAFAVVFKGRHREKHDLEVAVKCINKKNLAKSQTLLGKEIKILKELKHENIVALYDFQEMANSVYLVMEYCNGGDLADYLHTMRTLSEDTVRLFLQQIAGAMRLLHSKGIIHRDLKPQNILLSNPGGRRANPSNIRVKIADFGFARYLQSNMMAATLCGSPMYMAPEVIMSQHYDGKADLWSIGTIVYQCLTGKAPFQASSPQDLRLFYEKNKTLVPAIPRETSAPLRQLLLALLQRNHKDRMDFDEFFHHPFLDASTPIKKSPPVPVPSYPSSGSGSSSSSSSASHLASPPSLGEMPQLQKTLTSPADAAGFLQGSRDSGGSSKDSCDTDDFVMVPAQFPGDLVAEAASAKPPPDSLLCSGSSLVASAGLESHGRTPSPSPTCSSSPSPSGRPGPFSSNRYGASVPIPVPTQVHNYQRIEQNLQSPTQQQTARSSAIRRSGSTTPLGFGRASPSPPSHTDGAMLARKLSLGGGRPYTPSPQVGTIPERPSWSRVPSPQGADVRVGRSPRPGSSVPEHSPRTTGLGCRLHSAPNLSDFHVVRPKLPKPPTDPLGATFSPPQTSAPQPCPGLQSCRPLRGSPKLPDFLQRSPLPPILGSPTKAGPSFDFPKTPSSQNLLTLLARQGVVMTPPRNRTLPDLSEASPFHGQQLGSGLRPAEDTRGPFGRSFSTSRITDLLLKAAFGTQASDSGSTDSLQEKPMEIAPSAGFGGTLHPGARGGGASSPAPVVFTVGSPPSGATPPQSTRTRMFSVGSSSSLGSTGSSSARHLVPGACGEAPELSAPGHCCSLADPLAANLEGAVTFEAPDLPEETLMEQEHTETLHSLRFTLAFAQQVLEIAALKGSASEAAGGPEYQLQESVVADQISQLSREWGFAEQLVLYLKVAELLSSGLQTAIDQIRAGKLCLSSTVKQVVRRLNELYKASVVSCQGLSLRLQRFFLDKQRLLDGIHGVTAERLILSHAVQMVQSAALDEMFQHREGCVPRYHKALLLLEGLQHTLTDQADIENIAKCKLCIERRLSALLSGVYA

One experiment covers variants of B1. Conditions: with mlp3b_human MAP1LC3B.
Consider S17A, for which the “effect of a mutation on the interaction” value was “decreasing interaction”.

The variants in the next experiment derive from B1. The following applies: with mlp3b_human MAP1LC3B. This is another data set of the same source.
Turning to S17D, the “effect of a mutation on the interaction” value is “increasing interaction”.

In a further experiment the parent is B2. The following applies: with ulk1_mouse Ulk1, O70405.
As to N118A, the “effect of a mutation on the interaction” value is “disrupting interaction”.
